Results on 1 substance are retold here after article PMC10716779.

For the experiment, the target named is Full-length rat neuronal nitric oxide synthase (nNOS) (rat) (UniProt P29476).
Chain of Full-length rat neuronal nitric oxide synthase (nNOS) (rat) (P29476 whole entry): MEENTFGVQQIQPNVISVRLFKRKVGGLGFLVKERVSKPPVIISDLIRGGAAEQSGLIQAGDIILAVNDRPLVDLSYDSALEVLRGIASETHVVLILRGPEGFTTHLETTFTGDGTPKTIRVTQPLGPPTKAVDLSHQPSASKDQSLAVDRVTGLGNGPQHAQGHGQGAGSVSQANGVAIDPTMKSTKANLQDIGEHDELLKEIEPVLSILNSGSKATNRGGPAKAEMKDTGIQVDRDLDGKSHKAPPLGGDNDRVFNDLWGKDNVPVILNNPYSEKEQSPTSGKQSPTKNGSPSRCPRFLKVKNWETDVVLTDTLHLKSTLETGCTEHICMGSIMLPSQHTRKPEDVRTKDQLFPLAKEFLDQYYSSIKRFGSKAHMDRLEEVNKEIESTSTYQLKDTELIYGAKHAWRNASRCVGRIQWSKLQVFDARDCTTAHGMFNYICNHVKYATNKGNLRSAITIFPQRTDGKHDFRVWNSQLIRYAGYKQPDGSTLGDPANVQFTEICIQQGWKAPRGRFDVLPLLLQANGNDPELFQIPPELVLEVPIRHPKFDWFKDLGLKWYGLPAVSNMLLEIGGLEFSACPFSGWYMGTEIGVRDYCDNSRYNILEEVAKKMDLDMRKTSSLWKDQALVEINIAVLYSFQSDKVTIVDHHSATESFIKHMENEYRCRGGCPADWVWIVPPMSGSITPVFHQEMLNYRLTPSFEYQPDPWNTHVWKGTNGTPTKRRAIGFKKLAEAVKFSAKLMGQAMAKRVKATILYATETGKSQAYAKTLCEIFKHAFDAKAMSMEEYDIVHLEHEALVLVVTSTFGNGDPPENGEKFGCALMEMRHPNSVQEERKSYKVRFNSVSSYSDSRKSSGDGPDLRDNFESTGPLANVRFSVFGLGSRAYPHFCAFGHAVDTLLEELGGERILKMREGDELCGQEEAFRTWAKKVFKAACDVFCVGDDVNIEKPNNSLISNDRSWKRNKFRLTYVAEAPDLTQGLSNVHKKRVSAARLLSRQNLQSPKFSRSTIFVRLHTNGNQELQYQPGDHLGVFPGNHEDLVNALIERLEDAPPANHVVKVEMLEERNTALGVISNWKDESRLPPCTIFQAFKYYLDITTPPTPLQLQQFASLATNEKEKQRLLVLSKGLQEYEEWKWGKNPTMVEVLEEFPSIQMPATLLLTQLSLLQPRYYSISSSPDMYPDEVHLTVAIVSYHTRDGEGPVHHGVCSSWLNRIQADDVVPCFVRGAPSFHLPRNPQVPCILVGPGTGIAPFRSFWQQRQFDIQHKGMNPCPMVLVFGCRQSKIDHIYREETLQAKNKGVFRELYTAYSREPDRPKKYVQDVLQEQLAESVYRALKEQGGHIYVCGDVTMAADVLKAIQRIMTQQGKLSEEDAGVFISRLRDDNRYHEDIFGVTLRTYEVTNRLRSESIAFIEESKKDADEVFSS

“Human calmodulin (CaM), N-terminal His6-TEV tag removed (from UniProt P0DP23 1-149) (natural protein)”: the nNOS activity (NO synthesis, oxyhemoglobin assay) of 2.0 μM nNOS against increasing CaM concentration; CaM concentration at maximal activation is 2.4 µM.
